Common to all, as to type: physicochemical
Data set [1] is described as follows: Dissolution test of Traumeel S tablets coated with alginate/hydrophobin biopolymer. Particulars: Traumeel S tablets coated with 2% alginate containing 200 μg/ml protein, 0.1 M HCl pH 1, ambient temperature, FIG. 5A. The protocol: Homeopathic Traumeel®S tablets (Heel GmbH, Baden Baden, Germany) are used for coating experiments. These tablets are highly soluble and are formulated based on lactose monohydrate and magnesium stearate. […] Tablets are then immersed immediately into a solution of 0.1 M CaCl2 and dried at room temperature. For the dissolution test, tablets are immersed in 50 ml 0.1 M HCl at room temperature.
Traumeel® S (Heel) tablets are coated with hydrophobin, and resistance to acidic conditions of pH 1.0 is tested in a dissolution assay. Traumeel® S tablets are submersed in a solution of 2% alginate, containing 200 μg/ml TT, PO, TR or SC, respectively. […] After short submersion, alginate-coated tablets are allowed to polymerise in 0.1M CaCl2 and dried over night at ambient temperature.
The incubation for the dissolution test is at ambient temperature in 0.1M HCl for 10 to 120 min. Results: The coating of tablets with a biopolymer consisting of alginate with an admixture of hydrophobin yields beneficial properties regarding sustained release of a pharmaceutical composition.

Data set [2] is described as follows: Dissolution of gelatine films with or without hydrophobin. Particulars: gelatine with 200 μg/ml hydrophobin. As for the experimental part:
Gelatine (stained red, purchased from RUF, Quakenbrück, Germany) is solubilized in water or a SC-solution (final concentration 200 μg/ml). 500 μl solubilized gelatine is added per well of a 6-well macroplate. Gelatine is dried over night at 50° C. Then 500 μl H2O, 0.1 N HCl or 0.1 N HCl with 0.4 U/ml pepsin, respectively, are added to the wells.

The nature of data set [3]: Release of indicator dye from gelatine capsules coated by spraying with hydrophobin. Particulars: for release of dye from capsules (retention of dye within the capsule): gelatine capsules sprayed with 200 μg/ml hydrophobin in water, 0.1 M HCl pH 1.0, interval of observation 2 hours, FIG. 1A. The source says:
(§1) For setting up the leakage experiments, gelatine capsules with a volume of 0.68 cm^3 (Capsulae operculatae Nr. 0, Pharmapol GmbH, D-25578 Dageling) are filled with the indicator dye bromo phenol blue. The capsules are filled with equal weight proportions of mannitol, sodium hydrogen carbonate, trisodium citrate dehydrogenate and water-soluble bromo phenol blue and closed by joining the upper and lower part of the capsule tightly. To avoid unspecific leakage from the capsule, the joint is sealed.
The filled and sealed capsules are sprayed using a commercially available nebuliser with a solution of 200 μg/ml SC in water.
(§2) For testing the release of dye from the capsules after different surface treatments, the capsules are submerged in 50 ml 0.1 M HCl corresponding to a pH of 1.0 in order to mimic the acidic environment in the stomach. In a second setup, 0.4 U/ml pepsin are added to the 0.1 M HCl to test for resistance to a typical enzyme in the stomach juice. Quantification of the release is accomplished by computer aided optical evaluation of different areas of the solution in the immersion bath leading to arbitrary luminance units.
The release of dye from capsules coated by spraying with hydrophobins or as a control with water, respectively, is assayed in an acidic environment to mimic stomach conditions. The amount of dye contained in the immersion bath is measured by optical evaluation and given as arbitrary luminance units.

Data set [4] can be described thus: Release of indicator dye from gelatine capsules coated with alginate/hydrophobin biopolymer.
Description: as §1
Filled and sealed capsules were submerged in a solution of 2% w/v alginate (E400) containing 200 μg/ml hydrophobin for 10 seconds. […] Crosslinking of alginate is accomplished by subsequent submerging in 0.1 M CaCl2. Subsequently, the capsules are dried at room temperature.
as §2
Hydrophobin SC is prepared and the gelatine capsules are filled with indicator dye as described above. Filled and sealed capsules are submerged in a solution of 2% w/v alginate (E400) containing 200 μg/ml hydrophobin.
Three hydrophobins are used to test if the modulation of the release kinetics of alginate coated gelatine capsules can be achieved with different hydrophobins. SC is prepared as described further above. Two additional hydrophobins are recombinantly produced in a similar procedure as described for SC. TT is from Talaromyces thermophilus and PO from Pleurotus ostreatus. Capsules are filled with indicator dye, sealed and immersed in a mixture of alginate and hydrophobin SC, TT or PO, respectively, as described in examples 1 and 2. As a control, an admixture of alginate and BSA is used. […]

B1: SC: class I hydrophobin from Schizophyllum commune, accession P16933, recombinant his-tagged from E. coli (protein, UniProt P16933 25-136, looked up)
Class I hydrophobin SC3: GGHPGTTTPPVTTTVTVTTPPSTTTIAAGGTCTTGSLSCCNQVQSASSSPVTALLGLLGIVLSDLNVLVGISCSPLTVIGVGGSGCSAQTVCCENTQFNGLINIGCTPINIL
modifications: His tag
In the case of B1, the results for the “resistance to dissolution of the coated tablet (integrity of tablets)” value in data set [1] and in data set [1] (listed as SC3) were “superior to the class II hydrophobin TR” and “delays the dissolution of the tablets significantly”, respectively. In addition, in data set [2] (dried, H2O, 0.1 N HCl or 0.1 N HCl with 0.4 U/ml pepsin, FIG. 5B), the dissolution of gelatine result is “inhibits the dissolution of gelatine”. In addition, the “dissolution of gelatine in an environment mimicking gastric juices” value in data set [2] (0.1 N HCl, with or without 0.4 U/ml pepsin) is given as “reduced”. In data set [2] (water), the “dissolution of the biopolymer gelatine in water” value is listed as “strongly hampered”. Further, the entries for the “release of dye from capsules (retention of dye within the capsule)” value in data set [3] and in data set [3] (listed as SC3) were “prolonged retention of dye within the capsule” and “resistant to an acidic environment”, respectively. The “release of dye from capsules” value in data set [3] (sprayed gelatine capsules, 0.1 M HCl pH 1.0 with 0.4 U/ml pepsin, FIG. 1B) is recorded as “same advantageous release characteristics”. For the same molecule, the “resistance of coated capsules / onset of dye release, acidic environment” value in data set [4] (alginate with 200 μg/ml protein, pH 1.0, FIG. 3A) is given as “increased resistance to stomach juices”. Further, the “release characteristics of capsules (dye release)” value in data set [4] (alginate-coated capsules, 200 μg/ml protein, 0.1 M HCl pH 1.0 with 0.4 U/ml pepsin, FIG. 2B) is listed as “essentially the same”. The “resistance of capsules to acidic conditions (dye release)” value in data set [4] (capsules submerged in 2% w/v alginate containing 200 μg/ml protein, pH 1.0, FIG. 2A) is recorded as “comparable to that of gelatine capsules sprayed with hydrophobin”.

B2: PO: class I hydrophobin from Pleurotus ostreatus, accession CAA76494, recombinant from E. coli (protein, UniProt O60048 22-113, looked up)
Class I hydrophobin POH3: IPRTNPPAPTCTTGSLQCCNSVQAASNPVVGLLAGLLGIVLGPITGQVGLTCSPITVIGVGGTSCSAQTVCCNGNSFNGLIVVGCSPVNISL
On to B2, for which, in data set [1], the “resistance to dissolution of the coated tablet (integrity of tablets)” value was “superior to the class II hydrophobin TR”.
